± gives the standard deviation of the averaged measurements.
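Also: PSI is a weighted mean of sequencing reads over stability bins, variants kept only with over 10 reads, mCherry proximal and sfGFP distal, peptide attached via GGGS linker.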

For the data set, the system named is Saccharomyces cerevisiae. Nature of the data set: protein stability index of tFT-peptide fusion (C-terminal peptide) (PSI (0-1 scale)); higher = more stable (slower turnover). As to conditions: genetic background: wild type; temperature: 30 C.
Turning to LHPLHSSSPRVS, the protein stability index was found to be 0.704 ± 0.026.
Sequence LHPPHPPPSPPP yielded a protein stability index of 0.626 ± 0.1.
Then LHPPLTLTFYLS, with 0.555 ± 0.0089; and LHPPRPTPKHPA, with 0.608 ± 0.0093; and LHPSPPSPLPPP, with 0.723 ± 0.028.
To LHPSPQRHKTLQ belongs 0.743 ± 0.017; to LHRLRLASRAAL, 0.719 ± 0.068.
To LHSPATAPHRPP belongs 0.67 ± 0.022; to LHSRLPPCRRHV, 0.674 ± 0.021.
Regarding LHTLPLVLSLPA, the protein stability index was determined as 0.534 ± 0.025.
Then LHTSTRPLPPTS, with 0.675 ± 0.067.
To LIFLPPSPLPLS belongs 0.709 ± 0.085; to LIGICCDSGSHC, 0.691 ± 0.057; to LIIRTWEQILSP, 0.692 ± 0.058.
To LILLTVGSPRSG belongs 0.686 ± 0.013; to LIPLVFAPSLVL, 0.769 ± 0.093; to LIQKANGRIRRG, 0.763 ± 0.02.
As for LIRRTECPRSTS, the protein stability index turned out to be 0.6782 ± 0.0048.
Then LISLERRGVAGR, with 0.657 ± 0.043; and LIVFSFLSCPVP, with 0.5234 ± 0.0013.
To LIVWAGACGVSR belongs 0.611 ± 0.014.
Then LKGVNPVNLHEL, with 0.66 ± 0.039; and LKKSEKLSNKII, with 0.644 ± 0.041; and LKPLRTWLSGSA, with 0.719 ± 0.019.
Take LKPPEDPCASRV: the protein stability index amounted to 0.677 ± 0.021.
Then LKYEGPKYHMKR, with 0.691 ± 0.061; and LLAGGDVSGVGV, with 0.695 ± 0.015; and LLCHLSPSSSPI, with 0.786 ± 0.068.
To LLCLKIGASWSK belongs 0.674 ± 0.028; to LLCLVSCFGCWL, 0.585 ± 0.052; to LLDGAGGGVGEG, 0.738 ± 0.033.
For LLDLYTLSRLDP, the protein stability index worked out at 0.754 ± 0.043.
Then LLDRGLLSALLA, with 0.563 ± 0.034; and LLDTSTVTCFER, with 0.741 ± 0.01.
In the case of LLFPSPPLPPPL, the protein stability index is 0.784 ± 0.15.
Take LLFSTPWVWCLL: the protein stability index was determined as 0.623 ± 0.051.
To LLFTWGGRGCLG belongs 0.746 ± 0.032; to LLGRGVSLFRCG, 0.643 ± 0.3.
For LLLASSFFTLIL, the protein stability index worked out at 0.687 ± 0.043.
Then LLLDIFYWTVQS, with 0.615 ± 0.049; and LLLDRGISLLLL, with 0.607 ± 0.026; and LLLLIPCYSPPP, with 0.659 ± 0.071.
To LLLLLPPLPFVP belongs 0.66 ± 0.035; to LLLPPRLPNISP, 0.709 ± 0.044.
Then LLLSPSRLPPAD, with 0.676 ± 0.043.
LLLTGYGLLPST had a protein stability index of 0.676 ± 0.079.
Then LLNAARIGNKGP, with 0.663 ± 0.06.
To LLNIPLVFFSFP belongs 0.58 ± 0.1; to LLNLLLFLLPPS, 0.636 ± 0.031.
Then LLPNLFDSQFRE, with 0.756 ± 0.044; and LLPPPPLPPPRP, with 0.67 ± 0.032; and LLPPPPPPSTPT, with 0.798 ± 0.083.
LLPPPPTPDPGP came in with a protein stability index of 0.645 ± 0.0067.
To LLPPPSRTPPPS belongs 0.688 ± 0.02; to LLPPSLLSPPPF, 0.696 ± 0.094.
Then LLPRSPLLPPLH, with 0.719 ± 0.0048; and LLPSPSYPLSPS, with 0.751 ± 0.037; and LLPTRPAPHLSL, with 0.704 ± 0.17.
Then LLRGDVVALRAH, with 0.618 ± 0.052.
With LLRLLYVGVVGR, the protein stability index was 0.573 ± 0.027.
To LLRRSNLLHLVL belongs 0.574 ± 0.049; to LLRYKWSRHLVG, 0.47 ± 0.046.
Then LLSLFLLSPSVI, with 0.681 ± 0.007; and LLSLRSPCSSSR, with 0.697 ± 0.066.

Values taken from the supplement of paper PMC10724198.
